According to patent US20130260455A1 (ONCOMED PHARMACEUTICALS, published 2013):
Substitutions are numbered along the chain they refer to.

Key:
[1] = biological target: T1, recombinant mouse Notch2 (EGF10-15) (mouse, UniProt O35516 375-605); test: Biacore SPR
T1 construct: domain: EGF10-15; also called mNotch2; m-Notch2
T1 sequence (looked up): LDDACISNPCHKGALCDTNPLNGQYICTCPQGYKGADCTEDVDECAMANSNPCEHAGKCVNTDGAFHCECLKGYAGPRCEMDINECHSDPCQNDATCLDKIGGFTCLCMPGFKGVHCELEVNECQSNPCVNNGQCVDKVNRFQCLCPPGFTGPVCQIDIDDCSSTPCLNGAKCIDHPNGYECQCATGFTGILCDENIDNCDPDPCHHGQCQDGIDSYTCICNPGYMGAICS

[2] = biological target: T2, recombinant mouse Notch3 (EGF9-14) (mouse, UniProt Q61982 352-581); test: Biacore SPR
T2 construct: domain: EGF9-14; also called mNotch3; m-Notch3
T2 sequence (looked up): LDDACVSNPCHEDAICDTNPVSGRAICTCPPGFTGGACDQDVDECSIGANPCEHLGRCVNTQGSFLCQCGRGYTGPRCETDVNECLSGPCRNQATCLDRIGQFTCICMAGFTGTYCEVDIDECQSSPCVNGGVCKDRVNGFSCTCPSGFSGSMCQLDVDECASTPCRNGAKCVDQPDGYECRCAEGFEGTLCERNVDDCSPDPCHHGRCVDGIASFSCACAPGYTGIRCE

[3] = biological target: T3, recombinant human Notch3 (EGF9-14) (human, UniProt Q9UM47 351-580); test: Biacore SPR
T3 construct: The whole entry for hNotch3 is named here; also called hNotch3; h-Notch3
T3 sequence: T2 sequence (looked up) with S22N, M153T, E193D, I227T

[4] = biological target: T4, human Notch2 as used in the Biacore analysis of Table 6 (construct not stated) (human, UniProt Q04721 375-605, limits assumed); test: Biacore SPR
T4 construct: also called h-Notch2
T4 sequence: T1 sequence (looked up) with V121I, I191V, D194E

[5] = biological target: T5, human Notch4, full length, on transfected cells (human, UniProt Q99466 24-2003); test: FACS on HEK-293 cells transiently transfected with hNotch4 and GFP
T5 construct: also called hNotch4
Protocol: The ability of the 59R1 IgG2 antibody to cross-react with other Notch receptors was determined by FACS assay using HEK-293 cells transiently transfected with the human Notch1, Notch2. Notch3 or Notch4 expression plasmid and green fluorescent protein (GFP) as a transfection control. GFP positive cells indicated expression of the transgene. The 59R1 IgG2 was added to the cells at 2 μg/ml and detected by PE-conjugated goat anti-human Fc gamma specific (Jackson Immunochemicals). All Notch constructs were full length.

[6] = biological target: T6, mutant hNotch2 missing amino acids 375-412 (EGF repeat 10 deleted), on transfected cells (human, UniProt Q04721 26-2471); test: FACS on HEK-293 cells transiently transfected with human Notch2 Δaa 375-412 (EGF 10) and GFP
T6 construct: also called hNotch2 in the absence of EGF10
Protocol: FACS analysis of HEK-293 cells transiently transfected with the indicated Notch expression plasmid and GFP as a transfection control. GFP positive cells indicate expression of the transgene. Anti-Notch2 (59M70) was added at 20 μg/ml and detected by PE-conjugated goat anti-mouse (Caltag, #3004-4). 59R1 (IgG2) was added to the cells at 2 μg/ml and detected by PE-conjugated goat anti-human Fc gamma specific (Jackson Immunochemicals). Ligand binding was determined by incubation of the cells with human DLL4 extracellular domain (ECD) fused to rabbit IgG constant region at 5 μg/ml and detected by PE-conjugated donkey anti-rabbit.

T5 sequence (Q99466 24-2003 limits assumed): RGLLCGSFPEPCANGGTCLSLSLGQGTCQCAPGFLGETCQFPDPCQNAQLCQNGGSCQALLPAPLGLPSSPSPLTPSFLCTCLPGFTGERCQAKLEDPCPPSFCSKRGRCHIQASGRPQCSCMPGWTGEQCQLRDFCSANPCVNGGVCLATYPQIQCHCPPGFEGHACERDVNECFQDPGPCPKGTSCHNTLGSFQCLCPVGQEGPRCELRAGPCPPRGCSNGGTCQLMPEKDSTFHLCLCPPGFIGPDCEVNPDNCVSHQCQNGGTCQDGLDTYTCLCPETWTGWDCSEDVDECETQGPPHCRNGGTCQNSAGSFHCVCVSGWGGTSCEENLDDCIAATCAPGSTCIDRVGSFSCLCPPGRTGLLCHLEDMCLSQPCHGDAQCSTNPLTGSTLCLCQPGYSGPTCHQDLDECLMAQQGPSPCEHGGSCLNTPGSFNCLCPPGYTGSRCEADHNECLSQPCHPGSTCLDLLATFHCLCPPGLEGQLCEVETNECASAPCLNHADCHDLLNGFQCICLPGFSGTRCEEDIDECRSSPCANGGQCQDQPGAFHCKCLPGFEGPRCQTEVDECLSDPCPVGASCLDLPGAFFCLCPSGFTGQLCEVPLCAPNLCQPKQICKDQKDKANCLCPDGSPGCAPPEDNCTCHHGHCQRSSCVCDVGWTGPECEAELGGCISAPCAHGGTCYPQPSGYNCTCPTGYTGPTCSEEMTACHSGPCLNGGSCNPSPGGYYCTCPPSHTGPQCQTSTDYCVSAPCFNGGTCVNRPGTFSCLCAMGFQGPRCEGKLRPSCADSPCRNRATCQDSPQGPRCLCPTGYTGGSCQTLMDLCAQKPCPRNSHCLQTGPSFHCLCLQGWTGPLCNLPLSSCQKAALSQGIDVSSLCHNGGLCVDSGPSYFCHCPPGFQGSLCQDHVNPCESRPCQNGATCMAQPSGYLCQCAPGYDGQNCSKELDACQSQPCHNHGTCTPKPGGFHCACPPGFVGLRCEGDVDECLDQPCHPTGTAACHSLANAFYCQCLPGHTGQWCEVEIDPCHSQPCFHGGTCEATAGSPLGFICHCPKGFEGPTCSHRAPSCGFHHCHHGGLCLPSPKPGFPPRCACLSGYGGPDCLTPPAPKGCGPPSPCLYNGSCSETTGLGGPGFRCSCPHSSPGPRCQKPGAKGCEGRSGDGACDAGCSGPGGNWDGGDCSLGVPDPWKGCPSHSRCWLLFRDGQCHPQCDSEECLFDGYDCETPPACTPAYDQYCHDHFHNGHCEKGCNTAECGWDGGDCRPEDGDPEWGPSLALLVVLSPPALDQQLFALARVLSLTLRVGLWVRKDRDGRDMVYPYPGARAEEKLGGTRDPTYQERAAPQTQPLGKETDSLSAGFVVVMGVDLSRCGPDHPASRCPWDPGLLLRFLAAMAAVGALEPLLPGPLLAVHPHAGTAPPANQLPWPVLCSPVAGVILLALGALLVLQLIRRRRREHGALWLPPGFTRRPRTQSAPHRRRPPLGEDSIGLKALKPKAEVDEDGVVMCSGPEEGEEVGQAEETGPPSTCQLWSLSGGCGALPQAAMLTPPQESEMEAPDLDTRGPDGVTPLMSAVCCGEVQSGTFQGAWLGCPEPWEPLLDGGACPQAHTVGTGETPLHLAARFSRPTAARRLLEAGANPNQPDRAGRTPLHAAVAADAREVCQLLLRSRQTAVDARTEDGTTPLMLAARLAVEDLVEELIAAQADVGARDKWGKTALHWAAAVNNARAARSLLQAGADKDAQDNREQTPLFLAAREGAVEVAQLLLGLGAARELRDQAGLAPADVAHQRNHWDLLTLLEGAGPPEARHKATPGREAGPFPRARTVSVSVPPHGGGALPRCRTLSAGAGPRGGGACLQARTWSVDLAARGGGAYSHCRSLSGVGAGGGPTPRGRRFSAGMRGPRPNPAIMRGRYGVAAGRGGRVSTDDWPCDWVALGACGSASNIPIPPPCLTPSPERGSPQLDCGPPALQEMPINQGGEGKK

Kd [1]: 650 pM
Kd [2]: 320 pM
Kd [3]: 190 pM
Kd [4]: 50 pM
binding result [5]: no binding (tested: 2 ug/ml)
binding result [6]: no binding (tested: 2 ug/ml)
B1: 59R1 IgG2 antibody (antibody, V domains shown)
VH: QVQLVESGGGLVQPGGSLRLSCAASGFTFSSSGMSWVRQAPGKGLEWVSVIASSGSNTYYADSVKGRFTISRDNSKNTLYLQMNSLRAEDTAVYYCARGIFFAIWGQGTLVTVSS
VL: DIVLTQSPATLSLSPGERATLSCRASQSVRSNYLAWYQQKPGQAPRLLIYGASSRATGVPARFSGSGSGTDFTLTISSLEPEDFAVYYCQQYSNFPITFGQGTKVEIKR
notes: Human IgG2/kappa made in CHO cells; also called anti-Notch2/3 antibody 59R1
